Data published in patent US20180231548.

Assays:
[1] = target: T1, Methyl Red (MR)-AAPV-NBD-UBI29-41
T1 chain: AAPVKTGRAKRRMQYNRR

B1: human neutrophil elastase (protein)
chain: IVGGRRARPHAWPFMVSLQLRGGHFCGATLIAPNFVMSAAHCVANVNVRAVRVVLGAHNLSRREPTRQVFAVQRIFENGYDPVNLLNDIVILQLNGSATINANVQVAQLPAQGRRLGNGVQCLAMGWGLLGRNRGIASVLQELNVTVVTSLCRRSNVCTLVRGRQAGVCFGDSGSPLVCNGLIHGIASFVRGGCASGLYPDAFAPVAQFVNWIDSIIQ
bacterial labelling by NBD after cleavage of the probe; confocal images of a co-culture of bacteria and human neutrophils [1]: These images confirm the ability of the probe to be cleaved by neutrophil derived HNE and to label bacteria | fluorescence of the cleaved TAMRA compound (spectrophotometer) and NBD labelling of bacteria after cleavage (TAMRA-AAPV-NBD-PMX): the fluorescence of the cleaved TAMRA compound increases in an elastase dependent manner and are inhibited with an elastase inhibitor such as sivelestat
